Measured values as given in PMC9974451, “Transportin 1 is a major nuclear import receptor of the nitric oxide synthase interacting protein” (The Journal of Biological Chemistry, 2023).
Each block holds one binder with its values, some of them ahead of it.

Assays:
Conditions in all cases: both partners purified
[1] = biological target: RanQ69L (aa 1-180) loaded with GTP (UniProt P62826 1-180, Q69L); test: pull-down; GST-M9 or GST-NOSIP immobilised on glutathione Sepharose beads, MBP-tagged TNPO1 FL, ΔN or ΔC, with or without RanQ69L(1-180)-GTP; Coomassie
[2] = biological target: T1, His-S-importin β (full length) (UniProt Q14974 1-876); test: pull-down; 100 pmol His-NOSIP-MBP (WT or K78A/K79A) or MBP immobilised on amylose beads, 100 pmol purified His-tagged NTR, with or without 300 pmol RanQ69L(1-180)-GTP, 3 h, 4 °C, TPB; SDS-PAGE, Coomassie
T1 construct: called full-length importin β (FL) in the fragment experiment; the ΔN fragment ends at aa 876; also called His-importin β; S-His-importin β

[3] = biological target: T1, His-S-importin β (full length); test: pull-down; 100 pmol GST-IBB, GST-NOSIP or GST immobilised on glutathione Sepharose beads, 100 pmol His-S-tagged importin β FL, ΔN or ΔC; Western blot with anti-importin β
[4] = biological target: T2, importin β ΔC (aa 1-396), His-S-tagged (UniProt Q14974 1-396); test: as above
T2 construct: also called Imp β ΔC; N-terminal (ΔC) fragment

[5] = biological target: T1, His-S-importin β (full length); test: pull-down; competition: 100 pmol His-S-importin β immobilised on S-protein beads, 100 pmol His-NOSIP with 0, 100, 300, 1000 pmol His-importin α, or the other way around; Coomassie
[6] = biological target: T3, His-importin 13 (UniProt O94829 1-963); test: differential scanning fluorimetry; His-tagged NTR at 0.5 μM in TPB with 2 mM DTT, His-NOSIP or Ubc9 titrated in 18 steps from 0.05 to 5 μM, 5x SYPRO Orange, 25 to 90 °C; Tm plotted against concentration, exponential fit
T3 construct: importin 13; also called Imp 13; His-Imp13; source: E. coli JM109, purified (Ni-NTA agarose, size exclusion chromatography)
T3 sequence (looked up): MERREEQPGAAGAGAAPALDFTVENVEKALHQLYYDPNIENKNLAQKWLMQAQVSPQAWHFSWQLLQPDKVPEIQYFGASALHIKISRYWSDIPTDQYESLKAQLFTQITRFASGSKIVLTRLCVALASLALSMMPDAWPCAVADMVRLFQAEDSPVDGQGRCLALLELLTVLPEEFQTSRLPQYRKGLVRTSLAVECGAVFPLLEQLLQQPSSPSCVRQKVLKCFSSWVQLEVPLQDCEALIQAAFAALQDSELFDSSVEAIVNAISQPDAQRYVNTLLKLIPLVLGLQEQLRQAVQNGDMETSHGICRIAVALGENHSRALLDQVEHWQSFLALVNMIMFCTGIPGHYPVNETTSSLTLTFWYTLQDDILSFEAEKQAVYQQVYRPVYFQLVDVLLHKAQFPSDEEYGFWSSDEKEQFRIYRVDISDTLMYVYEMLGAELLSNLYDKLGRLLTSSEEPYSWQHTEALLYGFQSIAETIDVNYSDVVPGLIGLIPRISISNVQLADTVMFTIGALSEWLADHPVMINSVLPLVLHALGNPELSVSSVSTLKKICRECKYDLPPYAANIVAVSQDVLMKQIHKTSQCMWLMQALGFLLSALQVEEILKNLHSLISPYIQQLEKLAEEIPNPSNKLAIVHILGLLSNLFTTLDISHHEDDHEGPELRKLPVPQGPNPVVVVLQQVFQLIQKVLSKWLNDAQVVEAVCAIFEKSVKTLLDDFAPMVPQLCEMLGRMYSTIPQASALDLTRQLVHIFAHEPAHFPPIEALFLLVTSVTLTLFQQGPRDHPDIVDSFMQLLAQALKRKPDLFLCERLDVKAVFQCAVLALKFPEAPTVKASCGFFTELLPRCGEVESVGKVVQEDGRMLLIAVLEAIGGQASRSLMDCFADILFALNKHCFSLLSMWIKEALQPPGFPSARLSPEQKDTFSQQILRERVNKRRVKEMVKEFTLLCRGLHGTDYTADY

[7] = biological target: T4, His-TNPO1 (transportin 1) (UniProt Q92973-2 1-890); test: as above
T4 construct: transportin 1; The length 890 is printed for the MBP construct only; also called His-transportin 1
T4 sequence (looked up): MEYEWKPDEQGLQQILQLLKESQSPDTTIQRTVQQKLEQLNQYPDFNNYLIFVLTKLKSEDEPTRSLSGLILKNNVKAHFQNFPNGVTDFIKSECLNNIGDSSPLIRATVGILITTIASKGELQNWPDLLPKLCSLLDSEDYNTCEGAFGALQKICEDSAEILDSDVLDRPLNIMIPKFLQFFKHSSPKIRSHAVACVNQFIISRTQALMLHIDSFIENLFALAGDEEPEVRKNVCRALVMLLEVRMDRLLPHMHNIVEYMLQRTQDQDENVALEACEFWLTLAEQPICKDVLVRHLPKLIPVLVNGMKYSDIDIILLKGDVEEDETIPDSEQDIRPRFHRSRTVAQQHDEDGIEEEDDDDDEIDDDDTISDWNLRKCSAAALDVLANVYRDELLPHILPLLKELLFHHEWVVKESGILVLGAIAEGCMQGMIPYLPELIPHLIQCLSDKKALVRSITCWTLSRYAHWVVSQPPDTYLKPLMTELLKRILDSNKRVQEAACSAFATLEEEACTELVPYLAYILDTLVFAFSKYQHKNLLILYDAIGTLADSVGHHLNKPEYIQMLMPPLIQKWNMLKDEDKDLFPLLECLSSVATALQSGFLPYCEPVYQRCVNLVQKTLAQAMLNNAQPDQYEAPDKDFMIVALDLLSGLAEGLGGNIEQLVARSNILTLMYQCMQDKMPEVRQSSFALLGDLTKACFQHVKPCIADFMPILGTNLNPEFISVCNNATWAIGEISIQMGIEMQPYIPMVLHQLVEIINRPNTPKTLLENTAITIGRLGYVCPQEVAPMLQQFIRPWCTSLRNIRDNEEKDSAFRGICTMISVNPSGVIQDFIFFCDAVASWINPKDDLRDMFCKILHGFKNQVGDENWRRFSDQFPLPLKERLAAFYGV

T1 sequence (Q14974 whole entry, the tested form may be a part): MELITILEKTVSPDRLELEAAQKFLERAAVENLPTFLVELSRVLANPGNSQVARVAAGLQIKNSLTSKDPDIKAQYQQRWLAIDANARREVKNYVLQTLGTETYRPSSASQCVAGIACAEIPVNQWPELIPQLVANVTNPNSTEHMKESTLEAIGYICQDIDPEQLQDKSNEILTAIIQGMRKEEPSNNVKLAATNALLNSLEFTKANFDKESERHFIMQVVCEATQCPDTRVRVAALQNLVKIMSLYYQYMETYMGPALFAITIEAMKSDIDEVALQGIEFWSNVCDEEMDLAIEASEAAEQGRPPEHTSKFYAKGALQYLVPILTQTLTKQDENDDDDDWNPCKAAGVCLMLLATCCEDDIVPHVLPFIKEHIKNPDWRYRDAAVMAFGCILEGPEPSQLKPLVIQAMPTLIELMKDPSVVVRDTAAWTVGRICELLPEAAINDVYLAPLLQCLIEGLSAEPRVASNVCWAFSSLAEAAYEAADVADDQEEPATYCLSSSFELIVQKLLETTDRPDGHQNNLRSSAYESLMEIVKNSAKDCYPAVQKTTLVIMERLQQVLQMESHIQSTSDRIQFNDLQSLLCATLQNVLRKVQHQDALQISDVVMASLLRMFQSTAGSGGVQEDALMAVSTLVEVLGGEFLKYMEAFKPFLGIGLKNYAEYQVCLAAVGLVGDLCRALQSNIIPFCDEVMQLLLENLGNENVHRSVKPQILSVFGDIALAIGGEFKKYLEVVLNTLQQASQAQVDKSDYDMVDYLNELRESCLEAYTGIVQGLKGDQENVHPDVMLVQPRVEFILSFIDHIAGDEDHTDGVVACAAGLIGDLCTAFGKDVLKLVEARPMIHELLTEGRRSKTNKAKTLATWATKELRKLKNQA
T2 sequence (Q14974 1-396, stated change not applied): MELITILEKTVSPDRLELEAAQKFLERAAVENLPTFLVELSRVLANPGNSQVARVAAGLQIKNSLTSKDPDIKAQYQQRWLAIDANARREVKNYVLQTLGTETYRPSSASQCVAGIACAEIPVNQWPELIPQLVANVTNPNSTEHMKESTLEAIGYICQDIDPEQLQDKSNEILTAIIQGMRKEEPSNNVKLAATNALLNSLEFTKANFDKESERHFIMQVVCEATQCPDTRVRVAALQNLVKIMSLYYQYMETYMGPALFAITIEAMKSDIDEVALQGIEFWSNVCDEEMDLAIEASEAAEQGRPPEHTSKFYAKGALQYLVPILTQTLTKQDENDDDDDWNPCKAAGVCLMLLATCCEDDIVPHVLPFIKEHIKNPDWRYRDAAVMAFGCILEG

B1: MBP-TNPO1 FL (aa 1-890) (natural protein)
chain: MEYEWKPDEQGLQQILQLLKESQSPDTTIQRTVQQKLEQLNQYPDFNNYLIFVLTKLKSEDEPTRSLSGLILKNNVKAHFQNFPNGVTDFIKSECLNNIGDSSPLIRATVGILITTIASKGELQNWPDLLPKLCSLLDSEDYNTCEGAFGALQKICEDSAEILDSDVLDRPLNIMIPKFLQFFKHSSPKIRSHAVACVNQFIISRTQALMLHIDSFIENLFALAGDEEPEVRKNVCRALVMLLEVRMDRLLPHMHNIVEYMLQRTQDQDENVALEACEFWLTLAEQPICKDVLVRHLPKLIPVLVNGMKYSDIDIILLKGDVEEDETIPDSEQDIRPRFHRSRTVAQQHDEDGIEEEDDDDDEIDDDDTISDWNLRKCSAAALDVLANVYRDELLPHILPLLKELLFHHEWVVKESGILVLGAIAEGCMQGMIPYLPELIPHLIQCLSDKKALVRSITCWTLSRYAHWVVSQPPDTYLKPLMTELLKRILDSNKRVQEAACSAFATLEEEACTELVPYLAYILDTLVFAFSKYQHKNLLILYDAIGTLADSVGHHLNKPEYIQMLMPPLIQKWNMLKDEDKDLFPLLECLSSVATALQSGFLPYCEPVYQRCVNLVQKTLAQAMLNNAQPDQYEAPDKDFMIVALDLLSGLAEGLGGNIEQLVARSNILTLMYQCMQDKMPEVRQSSFALLGDLTKACFQHVKPCIADFMPILGTNLNPEFISVCNNATWAIGEISIQMGIEMQPYIPMVLHQLVEIINRPNTPKTLLENTAITIGRLGYVCPQEVAPMLQQFIRPWCTSLRNIRDNEEKDSAFRGICTMISVNPSGVIQDFIFFCDAVASWINPKDDLRDMFCKILHGFKNQVGDENWRRFSDQFPLPLKERLAAFYGV
notes: transportin 1, full length printed as aa 1-890 (890 residues); also called full-length TNPO1; source: E. coli BL21DE3, purified (amylose resin, size exclusion chromatography)
- binding result [1]: binds

B2: His-NOSIP-MBP (nitric oxide synthase interacting protein) (natural protein, UniProt Q9Y314 1-301, looked up)
chain: MTRHGKNCTAGAVYTYHEKKKDTAASGYGTQNIRLSRDAVKDFDCCCLSLQPCHDPVVTPDGYLYEREAILEYILHQKKEIARQMKAYEKQRGTRREEQKELQRAASQDHVRGFLEKESAIVSRPLNPFTAKALSGTSPDDVQPGPSVGPPSKDKDKVLPSFWIPSLTPEAKATKLEKPSRTVTCPMSGKPLRMSDLTPVHFTPLDSSVDRVGLITRSERYVCAVTRDSLSNATPCAVLRPSGAVVTLECVEKLIRKDMVDPVTGDKLTDRDIIVLQRGGTGFAGSGVKLQAEKSRPVMQA
notes: Name is printed in the order His-NOSIP-MBP; also called wildtype (WT) His-NOSIP-MBP; immobilized NOSIP; source: E. coli JM109, purified (Ni-NTA agarose, amylose resin, dialysis)
- binding result [2]: binds

Second part, the binder after the results:

- binding result [3]: binds
- binding result [4]: binds
B3: GST-NOSIP (natural protein, UniProt Q9Y314 1-301, looked up)
chain: MTRHGKNCTAGAVYTYHEKKKDTAASGYGTQNIRLSRDAVKDFDCCCLSLQPCHDPVVTPDGYLYEREAILEYILHQKKEIARQMKAYEKQRGTRREEQKELQRAASQDHVRGFLEKESAIVSRPLNPFTAKALSGTSPDDVQPGPSVGPPSKDKDKVLPSFWIPSLTPEAKATKLEKPSRTVTCPMSGKPLRMSDLTPVHFTPLDSSVDRVGLITRSERYVCAVTRDSLSNATPCAVLRPSGAVVTLECVEKLIRKDMVDPVTGDKLTDRDIIVLQRGGTGFAGSGVKLQAEKSRPVMQA
notes: also called immobilized GST-NOSIP; source: E. coli JM109, purified (glutathione Sepharose, size exclusion chromatography)

- binding result [5]: binds
- Kd [6]: 417 ± 100 nM
- Kd [7]: 233 ± 60 nM
B4: His-NOSIP (natural protein, UniProt Q9Y314 1-301, looked up)
chain: MTRHGKNCTAGAVYTYHEKKKDTAASGYGTQNIRLSRDAVKDFDCCCLSLQPCHDPVVTPDGYLYEREAILEYILHQKKEIARQMKAYEKQRGTRREEQKELQRAASQDHVRGFLEKESAIVSRPLNPFTAKALSGTSPDDVQPGPSVGPPSKDKDKVLPSFWIPSLTPEAKATKLEKPSRTVTCPMSGKPLRMSDLTPVHFTPLDSSVDRVGLITRSERYVCAVTRDSLSNATPCAVLRPSGAVVTLECVEKLIRKDMVDPVTGDKLTDRDIIVLQRGGTGFAGSGVKLQAEKSRPVMQA
notes: Lacks the MBP tag; source: E. coli JM109, purified (Ni-NTA agarose, size exclusion chromatography)
